Where two headings read alike, the source gives them in different places.
Legend:
WT MEF EVs = experiment: Quantitative LC-MS/MS proteomics of EVs from ISRIB-treated WT MEF cultures; format: cell-based, mouse; settings: EV protein abundance, ISRIB-treated WT vs WT
DYT-TOR1A MEF EVs = experiment: Quantitative LC-MS/MS proteomics of EVs from drug-treated DYT-TOR1A MEF cultures (ritonavir, salubrinal); format: cell-based, mouse; set-up: key to RTV Corrective Direction / RTV Corrective Direction, Grwd1 / RTV Corrective Direction, Srrm2 / RTV Corrective Direction, Rbm17 / RTV Corrective Direction, Dcaf8 / RTV Corrective Direction, Edil3 / RTV Corrective Direction, Timp3 / RTV Corrective Direction, Heatr3 / RTV Corrective Direction, Brd4 / RTV Corrective Direction, P3h4 / RTV Corrective Direction, Pacsin3 / RTV Corrective Direction, Naa50 / RTV Corrective Direction, Lpar6 / RTV Corrective Direction, Ndrg1 / RTV Corrective Direction, Kntc1 / RTV Corrective Direction, Cdk11b / RTV Corrective Direction, Sumo1 / RTV Corrective Direction, Lsm4 / RTV Corrective Direction, Hmga2 / RTV Corrective Direction, Cstf1 / RTV Corrective Direction, Tes / RTV Corrective Direction, Sbno1 / RTV Corrective Direction, Unc119b / RTV Corrective Direction, Cfdp1 / RTV Corrective Direction, Sec61b: YES = protein abundance effect opposite to DYT/WT; settings: for DYT + RTV/DYT Cohen's d: ritonavir (RTV)-treated DYT vs DYT
[1] = EV protein abundance, DYT + RTV (ritonavir) vs DYT, direction compared with DYT/WT

B1: Ipo7 (protein, UniProt Q9EPL8 1-1038, looked up)
Importin-7: MDPNTIIEALRGTMDPALREAAERQLNEAHKSLNFVSTLLQITMSEQLDLPVRQAGVIYLKNMITQYWPDREATPGDIAPYTIPEEDRHCIRENIVEAIIHSPELIRVQLTTCIHHIIKHDYPSRWTAIVDKIGFYLQSDNSACWLGILLCLYQLVKNYEYKKPEERSPLVAAMQHFLPVLKDRFIQLLSDQSDQSVLIQKQIFKIFYALVQYTLPLELINQQNLTEWVEILKTVVNRDVPNETLQVEEDDRPELPWWKCKKWALHILARLFERYGSPGNVSKEYNEFAEVFLKAFAVGVQQVLLKVLYQYKEKQYMAPRVLQQTLNYINQGVSHALTWKNLKPHIQGIIQDVIFPLMCYTDADEELWQEDPYEYIRMKFDVFEDFISPTTAAQTLLFTACSKRKEVLQKTMGFCYQILTEPNADPRKKDGALHMIGSLAEILLKKKIYKDQMEYMLQNHVFPLFSSELGYMRARACWVLHYFCEVKFKSDQNLQTALELTRRCLIDDREMPVKVEAAIALQVLISNQEKAKEYITPFIRPVMQALLHIIRETENDDLTNVIQKMICEYSEEVTPIAVEMTQHLAMTFNQVIQTGPDEEGSDDKAVTAMGILNTIDTLLSVVEDHKEITQQLEGICLQVIGTVLQQHVLEFYEEIFSLAHSLTCQQVSPQMWQLLPLVFEVFQQDGFDYFTDMMPLLHNYVTVDTDTLLSDTKYLEMIYSMCKKVLTGVAGEDAECHAAKLLEVIILQCKGRGIDQCIPLFVEAALERLTREVKTSELRTMCLQVAIAALYYNPHLLLNTLENLRFPNNVEPVTNHFITQWLNDVDCFLGLHDRKMCVLGLCALIDMEQIPQVLNQVSGQILPAFILLFNGLKRAYACHAEHENDSDDDEDAEDDDETEELGSDEDDIDEDGQEYLEILAKQAGEDGDDEDWEEDDAEETALEGYSTIIDDEDNPVDEYQIFKAIFQTIQNRNPVWYQALTHGLNEEQRKQLQDIATLADQRRAAHESKMIEKHGGYKFSAPVVPSSFNFGGPAPGMN
WT + ISRIB/WT Cohen's d (WT MEF EVs): 0.30
RTV Corrective Direction (DYT-TOR1A MEF EVs; [1]): YES
DYT + RTV/DYT Cohen's d (DYT-TOR1A MEF EVs; EV protein abundance): 2.25

B2: Tra2b (protein, UniProt P62996 2-288, looked up)
Transformer-2 protein homolog …: SDSGEQNYGERESRSASRSGSAHGSGKSARHTPARSRSKEDSRRSRSKSRSRSESRSRSRRSSRRHYTRSRSRSRSHRRSRSRSYSRDYRRRHSHSHSPMSTRRRHVGNRANPDPNCCLGVFGLSLYTTERDLREVFSKYGPIADVSIVYDQQSRRSRGFAFVYFENVDDAKEAKERANGMELDGRRIRVDFSITKRPHTPTPGIYMGRPTYGSSRRRDYYDRGYDRGYDDRDYYSRSYRGGGGGGGGWRAAQDRDQIYRRRSPSPYYSRGGYRSRSRSRSYSPRRY
WT + ISRIB/WT Cohen's d (WT MEF EVs): 0.54
RTV Corrective Direction (DYT-TOR1A MEF EVs; [1]): YES
DYT + RTV/DYT Cohen's d (DYT-TOR1A MEF EVs; EV protein abundance): 3.28

B3: Ssb (protein, UniProt P32067 1-415, looked up)
Lupus La protein homolog: MAENGDNEKMTALEAKICHQIEYYFGDFNLPRDKFLKEQIKLDEGWVPLETMIKFNRLNRLTTDFNVIVQALSKSKAKLMEVSADKTKIRRSPSRPLPEVTDEYKNDVKNRSVYIKGFPTDATLDDIKEWLDDKGQILNIQMRRTLHKTFKGSIFAVFDSIQSAKKFVEIPGQKYKDTNLLILFKEDYFAKKNEERKQSKVEAKLKAKQEHEGRHKPGSTETRALEGKMGCLLKFSGDLDDQTCREDLHFLFSNHGEIKWVDFARGAKEGIILFKEKAKEALEKARNANNGNLLLRNKKVTWKVLEGHAEKEALKKITDDQQESLNKWKSKGGHAGGRFKGSHVFTAARRFKGKGKGNRPGYAGAPKGRGQFHGRRTRFDDDDRRRGPMKRGRDGRDREEPASKHKKRENGARDK
WT + ISRIB/WT Cohen's d (WT MEF EVs): 0.41
RTV Corrective Direction (DYT-TOR1A MEF EVs): YES
DYT + RTV/DYT Cohen's d (DYT-TOR1A MEF EVs; EV protein abundance): 2.79

B4: Pdia4 (protein, UniProt P08003 21-638, looked up)
Protein disulfide-isomerase A4: AASAGDAHEDTSDTENATEEEEEEDDDDLEVKEENGVWVLNDGNFDNFVADKDTVLLEFYAPWCGHCKQFAPEYEKIASTLKDNDPPIAVAKIDATSASMLASKFDVSGYPTIKILKKGQAVDYDGSRTQEEIVAKVREVSQPDWTPPPEVTLSLTKDNFDDVVNNADIILVEFYAPWCGHCKKLAPEYEKAAKELSKRSPPIPLAKVDATEQTDLAKRFDVSGYPTLKIFRKGRPFDYNGPREKYGIVDYMIEQSGPPSKEILTLKQVQEFLKDGDDVVIIGLFQGDGDPAYLQYQDAANNLREDYKFHHTFSPEIAKFLKVSLGKLVLTHPEKFQSKYEPRFHVMDVQGSTEASAIKDYVVKHALPLVGHRKTSNDAKRYSKRPLVVVYYSVDFSFDYRAATQFWRNKVLEVAKDFPEYTFAIADEEDYATEVKDLGLSESGEDVNAAILDESGKKFAMEPEEFDSDTLREFVTAFKKGKLKPVIKSQPVPKNNKGPVKVVVGKTFDAIVMDPKKDVLIEFYAPWCGHCKQLEPIYTSLGKKYKGQKDLVIAKMDATANDITNDQYKVEGFPTIYFAPSGDKKNPIKFEGGNRDLEHLSKFIDEHATKRSRTKEEL
WT + ISRIB/WT Cohen's d (WT MEF EVs): 1.37
RTV Corrective Direction (DYT-TOR1A MEF EVs; [1]): YES
DYT + RTV/DYT Cohen's d (DYT-TOR1A MEF EVs; EV protein abundance): 2.25

B5: Pura (protein, UniProt P42669 2-321, looked up)
Transcriptional activator …: ADRDSGSEQGGAALGSGGSLGHPGSGSGSGGGGGGGGGGGGSGGGGGAPGGLQHETQELASKRVDIQNKRFYLDVKQNAKGRFLKIAEVGAGGNKSRLTLSMSVAVEFRDYLGDFIEHYAQLGPSQPPDLAQAQDEPRRALKSEFLVRENRKYYMDLKENQRGRFLRIRQTVNRGPGLGSTQGQTIALPAQGLIEFRDALAKLIDDYGVEEEPAELPEGTSLTVDNKRFFFDVGSNKYGVFMRVSEVKPTYRNSITVPYKVWAKFGHTFCKYSEEMKKIQEKQREKRAACEQLHQQQQQQQEETTAATLLLQGEEEGEED
WT + ISRIB/WT Cohen's d (WT MEF EVs): 0.52
RTV Corrective Direction (DYT-TOR1A MEF EVs): YES
DYT + RTV/DYT Cohen's d (DYT-TOR1A MEF EVs; EV protein abundance): 2.36

B6: Cryab (protein, UniProt P23927 1-175, looked up)
Alpha-crystallin B chain: MDIAIHHPWIRRPFFPFHSPSRLFDQFFGEHLLESDLFSTATSLSPFYLRPPSFLRAPSWIDTGLSEMRLEKDRFSVNLDVKHFSPEELKVKVLGDVIEVHGKHEERQDEHGFISREFHRKYRIPADVDPLTITSSLSSDGVLTVNGPRKQVSGPERTIPITREEKPAVAAAPKK
WT + ISRIB/WT Cohen's d (WT MEF EVs): 0.39
RTV Corrective Direction (DYT-TOR1A MEF EVs; [1]): YES
DYT + RTV/DYT Cohen's d (DYT-TOR1A MEF EVs; EV protein abundance): 1.11

B7: Itgb3 (protein, UniProt O54890 26-787, looked up)
Integrin beta-3: ESNICTTRGVNSCQQCLAVSPVCAWCSDETLSQGSPRCNLKENLLKDNCAPESIEFPVSEAQILEARPLSSKGSGSSAQITQVSPQRIALRLRPDDSKIFSLQVRQVEDYPVDIYYLMDLSFSMKDDLSSIQTLGTKLASQMRKLTSNLRIGFGAFVDKPVSPYMYISPPQAIKNPCYNMKNACLPMFGYKHVLTLTDQVSRFNEEVKKQSVSRNRDAPEGGFDAIMQATVCDEKIGWRNDASHLLVFTTDAKTHIALDGRLAGIVLPNDGHCHIGTDNHYSASTTMDYPSLGLMTEKLSQKNINLIFAVTENVVSLYQNYSELIPGTTVGVLSDDSSNVLQLIVDAYGKIRSKVELEVRDLPEELSLSFNATCLNNEVIPGLKSCVGLKIGDTVSFSIEAKVRGCPQEKEQSFTIKPVGFKDSLTVQVTFDCDCACQAFAQPSSPRCNNGNGTFECGVCRCDQGWLGSMCECSEEDYRPSQQEECSPKEGQPICSQRGECLCGQCVCHSSDFGKITGKYCECDDFSCVRYKGEMCSGHGQCNCGDCVCDSDWTGYYCNCTTRTDTCMSTNGLLCSGRGNCECGSCVCVQPGSYGDTCEKCPTCPDACSFKKECVECKKFNRGTLHEENTCSRYCRDDIEQVKELTDTGKNAVNCTYKNEDDCVVRFQYYEDTSGRAVLYVVEEPECPKGPDILVVLLSVMGAILLIGLATLLIWKLLITIHDRKEFAKFEEERARAKWDTANNPLYKEATSTFTNITYRGT
WT + ISRIB/WT Cohen's d (WT MEF EVs): 0.14
RTV Corrective Direction (DYT-TOR1A MEF EVs; [1]): YES
DYT + RTV/DYT Cohen's d (DYT-TOR1A MEF EVs; EV protein abundance): 1.96

B8: Srsf7 (protein, UniProt Q8BL97 1-267, looked up)
Serine/arginine-rich splicing …: MRSSARGRPLQAATAFFLSLFFFLRRFERGFWLWGGDSETKVYVGNLGTGAGKGELERAFSYYGPLRTVWIARNPPGFAFVEFEDPRDAEDAVRGLDGKVICGSRVRVELSTGMPRRSRFDRPPARRPFDPNDRCYECGEKGHYAYDCHRYSRRRRSRSRSRSHSRSRGRRYSRSRSRSRGRRSRSASPRRSRSVSLRRSRSASLRRSRSGSIIGSRYFQSRSRSRSRSRSISRPRSSRSKSRSPSPKRSRSPSGSPHRSASPERMD
WT + ISRIB/WT Cohen's d (WT MEF EVs): 0.13
RTV Corrective Direction (DYT-TOR1A MEF EVs; [1]): YES
DYT + RTV/DYT Cohen's d (DYT-TOR1A MEF EVs; EV protein abundance): 2.91
